This is an account of results in publication doi:10.1101/2025.06.24.660003.

For this assay, the target named is human plasma glycoproteins. The experiment in a line: far-Western, overlay or dot blot; human or rat plasma diluted 1:10, boiled with LDS sample buffer and 50 mM DTT, separated on 3-8% polyacrylamide gradient gels, transferred to BioTraceNT; GST-SLBR 5 nM in DPBS with 1x Blocking Reagent, 90 min, room temperature; detected with anti-GST.

“GST-tagged Siglec-like binding region of Hsa, V370F mutant (from UniProt A8AWU7 220-453) (domain or fragment)” gave a fold decrease in total binding against wild type of 3 fold.
